In publication PMC3520970 (PLoS ONE, 2012):

B1: P2 on rat liver ribosome (natural protein, rat (endogenous in rat liver ribosome), UniProt P02401 1-115, looked up)
chain: MRYVASYLLAALGGNSNPSAKDIKKILDSVGIEADDERLNKVISELNGKNIEDVIAQGVGKLASVPAGGAVAVSAAPGSAAPAAGSAPAAAEEKKDEKKEESEESDDDMGFGLFD
notes: also called P-protein P2

How the values were obtained:
[1] = target: P2 on rat liver ribosome (rat (endogenous in rat liver ribosome)) (UniProt P02401); settings: scale: arbitrary
Ribosomal protein P2 [2] = target: Ribosomal protein P2 (UniProt P05387)
Ribosomal protein P2 [3] = target: Ribosomal protein P2 (UniProt P05387); test: SPR; BIAcore 3000; P2 amine-coupled to CM5 chip (1300 RU); RIPs injected at 30 µl/min in 20 mM Tris, 30 mM NaCl, 0.005% Tween 20, pH 7.4; KD from RU at equilibrium
Ribosomal protein P2 [4] = target: Ribosomal protein P2 (UniProt P05387 1-115); test: cell-based or functional assay
P2 on rat liver ribosome = target: B1; test: cell-based or functional assay
His-Myc-tagged MOD = target: T1, His-Myc-tagged MOD (maize, UniProt P25891 17-286, Δ163–164 | Δ167–189, labelled with the crosslinker NHS-SS-Diazirine (SDAD)); test: cross-linking; SDAD-labelled Myc-MOD (90 µM) with rat liver ribosome (0.8 µM) in PBS, room temperature 30 minutes, UV 365 nm for an hour; western blot with anti-Myc and anti-P; settings: both partners purified
T1 construct: source: E. coli BL21(DE3)pLysS, purified (HisTrap); not shown: Myc, C-terminal, kept
T1 sequence: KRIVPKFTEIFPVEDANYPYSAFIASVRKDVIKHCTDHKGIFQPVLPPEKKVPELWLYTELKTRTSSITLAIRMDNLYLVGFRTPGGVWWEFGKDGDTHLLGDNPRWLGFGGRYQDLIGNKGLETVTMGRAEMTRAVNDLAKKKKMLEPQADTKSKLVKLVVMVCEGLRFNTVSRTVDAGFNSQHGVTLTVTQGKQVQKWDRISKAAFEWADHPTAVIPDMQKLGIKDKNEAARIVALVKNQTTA

Row | Molecule | N-glycosidase activity on rat liver ribosome, folds increased to untreated (P2 on rat liver ribosome) [fold] | relative N-glycosidase activity on rat liver ribosome (5 nM RIP, qPCR) (P2 on rat liver ribosome) | also measured
1 | Trichosanthin (enzyme) |  |  | relative N-glycosidase activity on rat liver ribosome (5 nM RIP, qPCR) [1]: 2610; cytotoxicity to 293T cells (MTT, 72 hours), EC50 (Ribosomal protein P2 [2]): 0.63 µM; Kd (Ribosomal protein P2 [3]): 612 µM
2 | Maize [Δ1–16, Δ163–164, Δ167–189, Δ287–300]-Pro-RIP (enzyme) KRIVPKFTEIFPVEDANYPYSAFIASVRKDVIKHCTDHKGIFQPVLPPEKKVPELWLYTELKTRTSSITLAIRMDNLYLVGFRTPGGVWWEFGKDGDTHLLGDNPRWLGFGGRYQDLIGNKGLETVTMGRAEMTRAVNDLAKKKKMLEPQADTKSKLVKLVVMVCEGLRFNTVSRTVDAGFNSQHGVTLTVTQGKQVQKWDRISKAAFEWADHPTAVIPDMQKLGIKDKNEAARIVALVKNQTTA | 14.3 | 54.3 arbitrary (ratio multiplied by an arbitrary factor) | cytotoxicity to 293T cells (MTT, 72 hours), IC50 (also called EC50) (Ribosomal protein P2 [4]): 7.88 µM
3 | MOD [K158A-K161A] (enzyme) KRIVPKFTEIFPVEDANYPYSAFIASVRKDVIKHCTDHKGIFQPVLPPEKKVPELWLYTELKTRTSSITLAIRMDNLYLVGFRTPGGVWWEFGKDGDTHLLGDNPRWLGFGGRYQDLIGNKGLETVTMGRAEMTRAVNDLAAAAAMLEPQADTKSKLVKLVVMVCEGLRFNTVSRTVDAGFNSQHGVTLTVTQGKQVQKWDRISKAAFEWADHPTAVIPDMQKLGIKDKNEAARIVALVKNQTTA | 0.85 | 3.24 arbitrary (ratio multiplied by an arbitrary factor) | 
4 | Maize [Δ1–16, Δ287–300]-Pro-RIP (enzyme) KRIVPKFTEIFPVEDANYPYSAFIASVRKDVIKHCTDHKGIFQPVLPPEKKVPELWLYTELKTRTSSITLAIRMDNLYLVGFRTPGGVWWEFGKDGDTHLLGDNPRWLGFGGRYQDLIGNKGLETVTMGRAEMTRAVNDLAKKKKMATLEEEEVQMQMQMPEAADLAAAAAADPQADTKSKLVKLVVMVCEGLRFNTVSRTVDAGFNSQHGVTLTVTQGKQVQKWDRISKAAFEWADHPTAVIPDMQKLGIKDKNEAARIVALVKNQTTA | 1.59 | 6.06 arbitrary (ratio multiplied by an arbitrary factor) | 
5 | B1 |  |  | binding result (His-Myc-tagged MOD): binds
